Experiments:
[1] = biological target: Azocasein
[2] = biological target: Azocoll
[3] = biological target: BSA, P02769
[4] = biological target: Casein
[5] = biological target: FITC-casein
[6] = biological target: neutral lactase (GODO-YNL2; unfragmented high molecular fraction F-1, about 120 kDa), P00723
neutral lactase (GODO-YNL2; unfragmented high molecular fraction F-1, about 120 kDa), P00723, sequence (P00723 whole entry, the tested form may be a part): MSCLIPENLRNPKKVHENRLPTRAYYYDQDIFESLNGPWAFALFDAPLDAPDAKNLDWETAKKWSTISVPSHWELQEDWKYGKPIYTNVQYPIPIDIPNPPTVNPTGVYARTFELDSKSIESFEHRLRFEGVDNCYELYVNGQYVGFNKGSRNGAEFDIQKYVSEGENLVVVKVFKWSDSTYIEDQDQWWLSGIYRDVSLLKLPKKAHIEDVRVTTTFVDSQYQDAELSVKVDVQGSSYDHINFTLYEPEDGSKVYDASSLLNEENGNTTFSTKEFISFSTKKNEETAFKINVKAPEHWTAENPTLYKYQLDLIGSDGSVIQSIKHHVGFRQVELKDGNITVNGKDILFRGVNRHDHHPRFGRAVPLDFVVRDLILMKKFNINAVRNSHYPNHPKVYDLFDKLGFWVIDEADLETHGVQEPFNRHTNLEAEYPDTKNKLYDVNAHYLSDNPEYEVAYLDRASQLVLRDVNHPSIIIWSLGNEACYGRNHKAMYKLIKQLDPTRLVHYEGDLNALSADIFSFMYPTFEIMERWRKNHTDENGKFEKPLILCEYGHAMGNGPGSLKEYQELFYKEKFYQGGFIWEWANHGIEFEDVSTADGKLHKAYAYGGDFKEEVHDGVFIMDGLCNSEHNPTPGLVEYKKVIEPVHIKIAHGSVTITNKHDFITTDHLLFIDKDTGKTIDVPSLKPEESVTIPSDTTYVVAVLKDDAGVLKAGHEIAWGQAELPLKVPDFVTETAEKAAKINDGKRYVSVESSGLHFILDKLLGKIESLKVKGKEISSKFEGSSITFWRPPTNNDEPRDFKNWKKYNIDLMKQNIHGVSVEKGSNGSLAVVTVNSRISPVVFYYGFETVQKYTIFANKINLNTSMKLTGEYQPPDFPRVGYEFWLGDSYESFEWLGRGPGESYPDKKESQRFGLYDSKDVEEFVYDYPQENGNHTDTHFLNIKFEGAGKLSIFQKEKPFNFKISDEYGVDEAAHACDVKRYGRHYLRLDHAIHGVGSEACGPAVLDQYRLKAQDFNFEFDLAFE

BSA, P02769, sequence (P02769 25-607): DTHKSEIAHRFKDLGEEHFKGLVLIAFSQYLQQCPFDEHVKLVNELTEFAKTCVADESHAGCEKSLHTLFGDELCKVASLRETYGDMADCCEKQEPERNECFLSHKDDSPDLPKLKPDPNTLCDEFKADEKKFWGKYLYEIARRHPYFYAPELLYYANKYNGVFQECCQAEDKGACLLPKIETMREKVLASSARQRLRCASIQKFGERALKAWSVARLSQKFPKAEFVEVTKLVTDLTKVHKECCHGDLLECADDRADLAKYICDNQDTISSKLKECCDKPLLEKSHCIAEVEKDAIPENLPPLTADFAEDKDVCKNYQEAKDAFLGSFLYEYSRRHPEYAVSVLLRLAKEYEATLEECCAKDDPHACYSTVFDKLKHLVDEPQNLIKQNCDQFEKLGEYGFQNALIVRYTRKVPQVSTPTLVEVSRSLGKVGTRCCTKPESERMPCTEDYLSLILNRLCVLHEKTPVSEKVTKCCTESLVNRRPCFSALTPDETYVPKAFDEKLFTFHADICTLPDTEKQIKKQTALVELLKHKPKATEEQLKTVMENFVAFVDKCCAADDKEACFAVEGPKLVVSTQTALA

B1: proteinase B derived from Kluyveromyces lactis (mature enzyme) (protein)
chain: SFNTQNSAPWGLARISHREKLNLGSFNKYLYDDDAGKGVTAYVVDTGVNVNHKDFDGRAVWGKTIPKDDPDVDGNGHGTHCAGTIGSVHYGVAKNADIVAVKVLRSNGSGTMSDVVKGVEYVAEAHKKAVEEQKKGFKGSTANMSLGGGKSPALDLAVNAAVKAGVHFAVAAGNENQDACNTSPAAAENAITVGASTLSDERAYFSNWGKCVDIFGPGLNILSTYIGSDTATATLSGTSMATPHVVGLLTYFLSLQPDADSEYFHAAGGITPSQLKKKLIDFSTKNVLSDLPEDTVNY
[1]
  SUBSTRATE SPECIFICITY (relative protease activity, K. lactis PrB): 1
[2]
  SUBSTRATE SPECIFICITY (relative protease activity, K. lactis PrB): 1.9
[3]
  SUBSTRATE SPECIFICITY (relative protease activity, K. lactis PrB): 0
[4]
  SUBSTRATE SPECIFICITY (relative protease activity, K. lactis PrB): 0
[5]
  SUBSTRATE SPECIFICITY (relative protease activity, K. lactis PrB): 78
[6]
  SUBSTRATE SPECIFICITY (relative protease activity, K. lactis PrB): 1160

From patent US20190075806
